In this test the target is recombinant His-tagged AGO2 (UniProt Q9UKV8). Nature of the test: SPR; Biacore T200; His-AGO2 immobilised on a CM5 chip by amine coupling (~7000 RU); peptides 20 to 1280 nM in HBS-P (10 mM HEPES, 150 mM NaCl, 0.005% T20, pH 7.4), 30 µL/min; Langmuir 1:1 model. On the technique in general: In SPR one partner is held on a chip, and binding of the other changes the refractive index at the surface.
Sequence of recombinant His-tagged AGO2 (Q9UKV8 whole entry): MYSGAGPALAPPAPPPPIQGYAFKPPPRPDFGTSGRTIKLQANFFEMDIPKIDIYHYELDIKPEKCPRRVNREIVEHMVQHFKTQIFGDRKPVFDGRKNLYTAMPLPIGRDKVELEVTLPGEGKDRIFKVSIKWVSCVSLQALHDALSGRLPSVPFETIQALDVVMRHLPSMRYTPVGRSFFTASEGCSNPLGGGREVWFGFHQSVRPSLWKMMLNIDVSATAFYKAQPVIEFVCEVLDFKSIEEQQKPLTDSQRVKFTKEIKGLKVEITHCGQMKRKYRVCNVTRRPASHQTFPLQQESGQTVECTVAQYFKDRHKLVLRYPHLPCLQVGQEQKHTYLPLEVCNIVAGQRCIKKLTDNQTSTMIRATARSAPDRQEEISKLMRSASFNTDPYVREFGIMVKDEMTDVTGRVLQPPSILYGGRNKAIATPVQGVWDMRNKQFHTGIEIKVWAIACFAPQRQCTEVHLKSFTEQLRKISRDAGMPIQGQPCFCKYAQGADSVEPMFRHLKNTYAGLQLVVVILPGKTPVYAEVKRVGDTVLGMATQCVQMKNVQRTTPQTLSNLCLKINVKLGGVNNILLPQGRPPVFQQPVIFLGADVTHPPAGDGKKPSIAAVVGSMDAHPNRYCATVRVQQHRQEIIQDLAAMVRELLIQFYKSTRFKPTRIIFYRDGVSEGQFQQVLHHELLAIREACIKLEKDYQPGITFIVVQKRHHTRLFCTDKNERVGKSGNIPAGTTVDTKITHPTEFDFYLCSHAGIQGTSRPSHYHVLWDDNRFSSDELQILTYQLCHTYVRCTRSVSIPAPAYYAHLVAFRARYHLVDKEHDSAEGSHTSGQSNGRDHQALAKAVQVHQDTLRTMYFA

What is called Kd is the equilibrium constant for the complex coming apart. For the substance “negative control peptide (CP) as used in the SPR”, the Kd was 107 µM.

For the origin of these results see article PMC8833744, “Strategic Decoy Peptides Interfere with MSI1/AGO2 Interaction to Elicit Tumor Suppression Effects” (Cancers, 2022).
